Reference: US4605614A, “Method for measuring plasmin” (Nitto Boseki Co., Ltd., priority 1981, dated 1986)

How the values were obtained:
Experiment in all cases: Km, Vmax and Vmax/Km of substrates for plasmin (pig)
Type in all cases: biochemical, Porcine (pig)
[1] = substrate: NCCCC[C@H](NC(=O)[C@H](Cc1ccccc1)NC(=O)[C@H](N)CCCCNS(=O)(=O)c1ccccc1)C(=O)Nc1ccc(O)c(C(=O)O)c1; details: other: TABLE 2, CHA substrates, plasmin (pig), 2,6-xylenol 615 nm
[2] = substrate: CC(C)C[C@H](NC(=O)[C@H](N)C(C)C)C(=O)N[C@@H](CCCCN)C(=O)Nc1ccc(O)c(C(=O)O)c1; details: other: TABLE 2, CHA substrates, plasmin (pig), 2,6-xylenol 615 nm
[3] = substrate: NCCCC[C@H](NC(=O)[C@H](Cc1ccccc1)NC(=O)[C@H](N)CC(=O)OC1CCCCC1)C(=O)Nc1ccc(O)c(C(=O)O)c1; details: other: TABLE 2, CHA substrates, plasmin (pig), 2,6-xylenol 615 nm
[4] = substrate: NCCCC[C@H](NC(=O)[C@H](Cc1ccccc1)NC(=O)[C@H](N)CCCCNC(=O)c1ccccc1)C(=O)Nc1ccc(O)c(C(=O)O)c1; details: other: TABLE 2, CHA substrates, plasmin (pig), 2,6-xylenol 615 nm
[5] = substrate: NCCCC[C@H](NC(=O)[C@H](Cc1ccccc1)NC(=O)[C@H](N)CCC(=O)NCCc1ccccc1)C(=O)Nc1ccc(O)c(C(=O)O)c1; details: other: TABLE 2, CHA substrates, plasmin (pig), 2,6-xylenol 615 nm
[6] = substrate: Cc1ccc(S(=O)(=O)NCCC[C@@H](N)C(=O)N[C@@H](Cc2ccccc2)C(=O)N[C@@H](CCCCN)C(=O)Nc2ccc(O)c(C(=O)O)c2)cc1; details: other: TABLE 2, CHA substrates, plasmin (pig), 2,6-xylenol 615 nm
[7] = substrate: NCCCC[C@H](NC(=O)[C@H](Cc1ccccc1)NC(=O)[C@H](N)CCCCNS(=O)(=O)c1ccc2ccccc2c1)C(=O)Nc1ccc(O)c(C(=O)O)c1; details: other: TABLE 2, CHA substrates, plasmin (pig), 2,6-xylenol 615 nm
[8] = substrate: Cc1ccc(C(=O)NCCCC[C@@H](N)C(=O)N[C@@H](Cc2ccccc2)C(=O)N[C@@H](CCCCN)C(=O)Nc2ccc([N+](=O)[O-])cc2)cc1; details: other: TABLE 1, PNA substrates, plasmin (pig), 405 nm
[9] = substrate: CC(C)[C@@H](N)C(=O)N[C@@H](Cc1ccccc1)C(=O)N[C@@H](CCCCN)C(=O)Nc1ccc(O)c(C(=O)O)c1; details: other: TABLE 2, CHA substrates, plasmin (pig), 2,6-xylenol 615 nm
[10] = substrate: Cc1ccc(S(=O)(=O)NCCCC[C@@H](N)C(=O)N[C@@H](CC(C)C)C(=O)N[C@@H](CCCCN)C(=O)Nc2ccc(O)c(C(=O)O)c2)cc1; details: other: TABLE 2, CHA substrates, plasmin (pig), 2,6-xylenol 615 nm
[11] = substrate: NCCCC[C@H](NC(=O)[C@H](Cc1ccccc1)NC(=O)[C@H](N)CCCCNS(=O)(=O)c1ccc2ccccc2c1)C(=O)Nc1ccc([N+](=O)[O-])cc1; details: other: TABLE 1, PNA substrates, plasmin (pig), 405 nm
[12] = substrate: NCCCC[C@H](NC(=O)[C@H](Cc1ccccc1)NC(=O)[C@H](N)CCC(=O)NCCCc1ccccc1)C(=O)Nc1ccc([N+](=O)[O-])cc1; details: other: TABLE 1, PNA substrates, plasmin (pig), 405 nm
[13] = substrate: Cc1ccc(S(=O)(=O)Oc2ccc(C[C@@H](N)C(=O)N[C@@H](Cc3ccccc3)C(=O)N[C@@H](CCCCN)C(=O)Nc3ccc(O)c(C(=O)O)c3)cc2)cc1; details: other: TABLE 2, CHA substrates, plasmin (pig), 2,6-xylenol 615 nm
[14] = substrate: NCCCC[C@H](NC(=O)[C@H](Cc1ccccc1)NC(=O)[C@H](N)CCC(=O)OCCc1ccccc1)C(=O)Nc1ccc([N+](=O)[O-])cc1; details: other: TABLE 1, PNA substrates, plasmin (pig), 405 nm
[15] = substrate: Cc1ccc(C(=O)NCCCC[C@@H](N)C(=O)N[C@@H](Cc2ccccc2)C(=O)N[C@@H](CCCCN)C(=O)Nc2ccc(O)c(C(=O)O)c2)cc1; details: other: TABLE 2, CHA substrates, plasmin (pig), 2,6-xylenol 615 nm
[16] = substrate: Cc1ccc(S(=O)(=O)Oc2ccc(C[C@@H](N)C(=O)N[C@@H](CC(C)C)C(=O)N[C@@H](CCCCN)C(=O)Nc3ccc(O)c(C(=O)O)c3)cc2)cc1; details: other: TABLE 2, CHA substrates, plasmin (pig), 2,6-xylenol 615 nm
[17] = substrate: Cc1cc(C)c(S(=O)(=O)NCCCC[C@@H](N)C(=O)N[C@@H](Cc2ccccc2)C(=O)N[C@@H](CCCCN)C(=O)Nc2ccc(O)c(C(=O)O)c2)c(C)c1; details: other: TABLE 2, CHA substrates, plasmin (pig), 2,6-xylenol 615 nm
[18] = substrate: CC(C)C[C@H](NC(=O)[C@H](N)C(C)C)C(=O)N[C@@H](CCCCN)C(=O)Nc1ccc([N+](=O)[O-])cc1

B1: plasmin (pig) (Sus scrofa) (protein)
chain: RIYLSECKTGNGKNYRGTTSKTKSGVICQKWSVSSPHIPKYSPEKFPLAGLEENYCRNPDNDEKGPWCYTTDPETRFDYCDIPECEDECMHCSGEHYEGKISKTMSGIECQSWGSQSPHAHGYLPSKFPNKNLKMNYCRNPDGEPRPWCFTTDPNKRWEFCDIPRCTTPPPTSGPTYQCLKGRGENYRGTVSVTASGHTCQRWSAQSPHKHNRTPENFPCKNLEENYCRNPDGETAPWCYTTDSEVRWDYCKIPSCGSSTTSTEYLDAPVPPEQTPVAQDCYRGNGESYRGTSSTTITGRKCQSWVSMTPHRHEKTPGNFPNAGLTMNYCRNPDADKSPWCYTTDPRVRWEYCNLKKCSETEQQVTNFPAIAQVPSVEDLSEDCMFGNGKRYRGKRATTVAGVPCQEWAAQEPHRHSIFTPETNPRAGLEKNYCRNPDGDDNGPWCYTTNPQKLFDYCDVPQCVTSSFDCGKPKVEPKKCPARVVGGCVSIPHSWPWQISLRHRYGGHFCGGTLISPEWVLTAKHCLEKSSSPSSYKVILGAHEEYHLGEGVQEIDVSKLFKEPSEADIALLKLSSPAIITDKVIPACLPTPNYVVADRTACYITGWGETKGTYGAGLLKEARLPVIENKVCNRYEYLGGKVSPNELCAGHLAGGIDSCQGDSGGPLVCFEKDKYILQGVTSWGLGCALPNKPGVYVRVSRFVTWIEEIMRRN
[1]
  Km: 532 µM
[2]
  Km: 3210 µM
[3]
  Km: 379 µM
[4]
  Km: 334 µM
[5]
  Km: 397 µM
[6]
  Km: 542 µM
[7]
  Km: 179 µM
[8]
  Km: 15.5 µM
[9]
  Km: 631 µM
[10]
  Km: 1000 µM
[11]
  Km: 17.9 µM
[12]
  Km: 39.3 µM
[13]
  Km: 154 µM
[14]
  Km: 31.1 µM
[15]
  Km: 76.2 µM
[16]
  Km: 1440 µM
[17]
  Km: 272 µM
[18]; other: Porcine Plasmin, comparison table in description
  Km: 348 µM
[18]; other: TABLE 1, PNA substrates, plasmin (pig), 405 nm
  Km: 348 µM
